Measured values as given in US20040266664.

Tests used:
Ac-GPFL-Ex = test system: T1, Ac-GPFL-Ex
T1 sequence: XPFX

[1] = test system: T2, N-acetyl-piperidinecarbonyl-PFL-Ex
T2 sequence: PFL

[2] = test system: T3, monoleucine α′,β′-epoxide
T3 sequence: L

[3] = test system: T4, tetrapeptide epoxide with P4 methylphenyl, other side chains leucine
T4 sequence: XLLL

[4] = test system: T5, tetrapeptide epoxide with P4 1-naphthyl, other side chains leucine
T5 sequence: XLLL

Benzoylbenzoic-PFL-Ex = test system: T6, Benzoylbenzoic-PFL-Ex
T6 sequence: PFL

Eponemycin = test system: T7, Eponemycin
T7 sequence: SL

Ac-LALL-epoxide = test system: T8, Ac-LALL-epoxide
T8 sequence: XALX

dileucine α′,β′-epoxide = test system: T9, dileucine α′,β′-epoxide
T9 sequence: LL

Ac-PFL-Ex = test system: T10, Ac-PFL-Ex
T10 sequence: PFL

Ac-GGPFL-Ex = test system: T11, Ac-GGPFL-Ex
T11 sequence: XGPFX

Ac-LFLL-epoxide = test system: T12, Ac-LFLL-epoxide
T12 sequence: XFLX

[5] = test system: T13, tetrapeptide epoxide with P4 p-benzoylphenyl, other side chains leucine
T13 sequence: XLLL

Ac-AVL-Ex = test system: T14, Ac-AVL-Ex
T14 sequence: AVL

Ac-PPFL-Ex = test system: T15, Ac-PPFL-Ex
T15 sequence: XPFX

Ac-LLAL-epoxide = test system: T16, Ac-LLAL-epoxide
T16 sequence: XLAX

[6] = test system: T17, tetrapeptide epoxide with P2 1-naphthyl, other side chains leucine
T17 sequence: LLXL

compound 16 = test system: T18, compound 16
T18 sequence: XLFX

Isooctanioc-PFL-Ex = test system: T19, Isooctanioc-PFL-Ex
T19 sequence: PFL

Ac-IVL-Ex = test system: T20, Ac-IVL-Ex
T20 sequence: IVL

Ac-LLFL-epoxide = test system: T21, Ac-LLFL-epoxide
T21 sequence: XLFX

[7] = test system: T22, tetrapeptide epoxide with P4 phenyl, other side chains leucine
T22 sequence: FLLL

[8] = test system: T23, tetraleucine α′,β′-epoxide
T23 sequence: LLLL

trileucine α′,β′-epoxide = test system: T24, trileucine α′,β′-epoxide
T24 sequence: LLL

[9] = test system: T25, N-dimethylaminobenzoyl-PFL-EX
T25 sequence: PFL

Pyrazinecarbonyl-PFL-Ex = test system: T26, Pyrazinecarbonyl-PFL-Ex
T26 sequence: PFL

Ac-ALLL-epoxide = test system: T27, Ac-ALLL-epoxide
T27 sequence: XLLX

[10] = test system: T28, tetrapeptide epoxide with P3 1-naphthyl, other side chains leucine
T28 sequence: LXLL

compound 18 = test system: T29, compound 18
T29 sequence: XLFX

Ac-NorLPFL-Ex = test system: T30, Ac-NorLPFL-Ex
T30 sequence: XPFX

purified bovine erythrocyte 20S proteasome
kobs/[I], PGPH activity (Ac-GPFL-Ex): 190 M⁻¹ s⁻¹ | kobs/[I], chymotrypsin-like activity (Ac-GPFL-Ex): 5 M⁻¹ s⁻¹ | kobs/[I], trypsin-like activity (Ac-GPFL-Ex): NI | kobs/[I], PGPH activity [1]: 45.3 M⁻¹ s⁻¹ | kobs/[I], chymotrypsin-like activity [1]: 31.2 M⁻¹ s⁻¹ | kobs/[I], trypsin-like activity [1]: NI | kobs/[I], PGPH activity [2]: † | kobs/[I], chymotrypsin-like activity [2]: † | kobs/[I], trypsin-like activity [2]: † | kobs/[I], PGPH activity (Z-LLE-AMC) [3]: 50 M⁻¹ s⁻¹ | kobs/[I], chymotryptic-like activity (Suc-LLVY-AMC) [3]: 63000 M⁻¹ s⁻¹ | kobs/[I], tryptic-like activity (Boc-LRR-AMC) [3]: 5.4 M⁻¹ s⁻¹ | kobs/[I], PGPH activity (Z-LLE-AMC) [4]: not measurable | kobs/[I], chymotryptic-like activity (Suc-LLVY-AMC) [4]: 29000 M⁻¹ s⁻¹ | kobs/[I], tryptic-like activity (Boc-LRR-AMC) [4]: not measurable | kobs/[I], PGPH activity (Benzoylbenzoic-PFL-Ex): 140 M⁻¹ s⁻¹ | kobs/[I], chymotrypsin-like activity (Benzoylbenzoic-PFL-Ex): 8.7 M⁻¹ s⁻¹ | kobs/[I], trypsin-like activity (Benzoylbenzoic-PFL-Ex): NI | kobs/[I], PGPH activity (Eponemycin): 175 M⁻¹ s⁻¹ | kobs/[I], chymotrypsin-like activity (Eponemycin): 58 M⁻¹ s⁻¹ | kobs/[I], trypsin-like activity (Eponemycin): 17 M⁻¹ s⁻¹ | kobs/[I], PGPH activity (Z-LLE-AMC) (Ac-LALL-epoxide): 130 M⁻¹ s⁻¹ | kobs/[I], chymotrypsin-like activity (Suc-LLVY-AMC) (Ac-LALL-epoxide): 1300 M⁻¹ s⁻¹ | kobs/[I], tryptic-like activity (Boc-LRR-AMC) (Ac-LALL-epoxide): 2 M⁻¹ s⁻¹ | kassoc = kobs/[I], PGPH activity (NLVS): 6.4 M⁻¹ s⁻¹ | kassoc = kobs/[I], chymotrypsin-like activity (NLVS): 6790 M⁻¹ s⁻¹ | kassoc = kobs/[I], trypsin-like activity (NLVS): 5.3 M⁻¹ s⁻¹ | kobs/[I], PGPH activity (dileucine α′,β′-epoxide): † | kobs/[I], chymotrypsin-like activity (dileucine α′,β′-epoxide): 3.1 (100-160 µM) | kobs/[I], trypsin-like activity (dileucine α′,β′-epoxide): † | kobs/[I], PGPH activity (Ac-PFL-Ex): 32 M⁻¹ s⁻¹ | kobs/[I], chymotrypsin-like activity (Ac-PFL-Ex): 42 M⁻¹ s⁻¹ | kobs/[I], trypsin-like activity (Ac-PFL-Ex): NI | kobs/[I], PGPH activity (Ac-GGPFL-Ex): 170 M⁻¹ s⁻¹ | kobs/[I], chymotrypsin-like activity (Ac-GGPFL-Ex): 170 M⁻¹ s⁻¹ | kobs/[I], trypsin-like activity (Ac-GGPFL-Ex): 1.3 M⁻¹ s⁻¹ | kobs/[I], PGPH activity (Z-LLE-AMC) (Ac-LFLL-epoxide): not measurable | kobs/[I], chymotrypsin-like activity (Suc-LLVY-AMC) (Ac-LFLL-epoxide): 8500 M⁻¹ s⁻¹ | kobs/[I], tryptic-like activity (Boc-LRR-AMC) (Ac-LFLL-epoxide): not measurable | kobs/[I], PGPH activity (Z-LLE-AMC) [5]: not measurable | kobs/[I], chymotryptic-like activity (Suc-LLVY-AMC) [5]: 23000 M⁻¹ s⁻¹ | kobs/[I], tryptic-like activity (Boc-LRR-AMC) [5]: not measurable | kobs/[I], PGPH activity (Ac-AVL-Ex): 12.7 M⁻¹ s⁻¹ | kobs/[I], chymotrypsin-like activity (Ac-AVL-Ex): 10.8 M⁻¹ s⁻¹ | kobs/[I], trypsin-like activity (Ac-AVL-Ex): 1.8 M⁻¹ s⁻¹ | kobs/[I], PGPH activity (Ac-PPFL-Ex): 10.6 M⁻¹ s⁻¹ | kobs/[I], chymotrypsin-like activity (Ac-PPFL-Ex): 6.4 M⁻¹ s⁻¹ | kobs/[I], trypsin-like activity (Ac-PPFL-Ex): NI | kobs/[I], PGPH activity (Z-LLE-AMC) (Ac-LLAL-epoxide): 20 M⁻¹ s⁻¹ | kobs/[I], chymotrypsin-like activity (Suc-LLVY-AMC) (Ac-LLAL-epoxide): 16000 M⁻¹ s⁻¹ | kobs/[I], tryptic-like activity (Boc-LRR-AMC) (Ac-LLAL-epoxide): 4.1 M⁻¹ s⁻¹ | kobs/[I], PGPH activity (Z-LLE-AMC) [6]: not measurable | kobs/[I], chymotryptic-like activity (Suc-LLVY-AMC) [6]: 29000 M⁻¹ s⁻¹ | kobs/[I], tryptic-like activity (Boc-LRR-AMC) [6]: not measurable | kassoc = kobs/[I], PGPH activity (compound 16): 21 (80-150 µM) | kassoc = kobs/[I], trypsin-like activity (compound 16): 7.1 (80-130 µM) | kobs/[I], chymotryptic-like activity (Suc-LLVY-AMC) (compound 16): 183000 M⁻¹ s⁻¹ | kobs/[I], PGPH activity (Isooctanioc-PFL-Ex): 194 M⁻¹ s⁻¹ | kobs/[I], chymotrypsin-like activity (Isooctanioc-PFL-Ex): 190 M⁻¹ s⁻¹ | kobs/[I], trypsin-like activity (Isooctanioc-PFL-Ex): NI | kobs/[I], PGPH activity (Ac-IVL-Ex): 14.6 M⁻¹ s⁻¹ | kobs/[I], chymotrypsin-like activity (Ac-IVL-Ex): 5 M⁻¹ s⁻¹ | kobs/[I], trypsin-like activity (Ac-IVL-Ex): 6.7 M⁻¹ s⁻¹ | kobs/[I], PGPH activity (Z-LLE-AMC) (Ac-LLFL-epoxide): not measurable | kobs/[I], chymotrypsin-like activity (Suc-LLVY-AMC) (Ac-LLFL-epoxide): 54000 M⁻¹ s⁻¹ | kobs/[I], tryptic-like activity (Boc-LRR-AMC) (Ac-LLFL-epoxide): not measurable | kobs/[I], PGPH activity (Z-LLE-AMC) [7]: 78 M⁻¹ s⁻¹ | kobs/[I], chymotryptic-like activity (Suc-LLVY-AMC) [7]: 37000 M⁻¹ s⁻¹ | kobs/[I], tryptic-like activity (Boc-LRR-AMC) [7]: 5.5 M⁻¹ s⁻¹ | kobs/[I], PGPH activity [8]: 9.2 (100-160 µM) | kobs/[I], chymotrypsin-like activity [8]: 14,000 (50-150 nm) | kobs/[I], trypsin-like activity [8]: † | kobs/[I], PGPH activity (trileucine α′,β′-epoxide): 120 (8-12 µM) | kobs/[I], chymotrypsin-like activity (trileucine α′,β′-epoxide): 780 (1-2.5 µM) | kobs/[I], trypsin-like activity (trileucine α′,β′-epoxide): 5.1 M⁻¹ s⁻¹ | kobs/[I], PGPH activity [9]: 150 M⁻¹ s⁻¹ | kobs/[I], chymotrypsin-like activity [9]: 220 M⁻¹ s⁻¹ | kobs/[I], trypsin-like activity [9]: NI | kobs/[I], PGPH activity (Pyrazinecarbonyl-PFL-Ex): 23 M⁻¹ s⁻¹ | kobs/[I], chymotrypsin-like activity (Pyrazinecarbonyl-PFL-Ex): 520 M⁻¹ s⁻¹ | kobs/[I], trypsin-like activity (Pyrazinecarbonyl-PFL-Ex): 3.7 M⁻¹ s⁻¹ | kobs/[I], PGPH activity (Z-LLE-AMC) (Ac-ALLL-epoxide): 220 M⁻¹ s⁻¹ | kobs/[I], chymotrypsin-like activity (Suc-LLVY-AMC) (Ac-ALLL-epoxide): 5300 M⁻¹ s⁻¹ | kobs/[I], tryptic-like activity (Boc-LRR-AMC) (Ac-ALLL-epoxide): 3.8 M⁻¹ s⁻¹ | kobs/[I], PGPH activity (Z-LLE-AMC) [10]: not measurable | kobs/[I], chymotryptic-like activity (Suc-LLVY-AMC) [10]: 31000 M⁻¹ s⁻¹ | kobs/[I], tryptic-like activity (Boc-LRR-AMC) [10]: not measurable | kassoc = kobs/[I], PGPH activity (compound 18): 11 (10-150 µM) | kassoc = kobs/[I], chymotrypsin-like activity (compound 18): 5200 (0.11 µM) | kassoc = kobs/[I], trypsin-like activity (compound 18): 580 (0.5-5 µM) | kobs/[I], PGPH activity (Ac-NorLPFL-Ex): 115 M⁻¹ s⁻¹ | kobs/[I], chymotrypsin-like activity (Ac-NorLPFL-Ex): 1.9 M⁻¹ s⁻¹ | kobs/[I], trypsin-like activity (Ac-NorLPFL-Ex): NI
